Results: patent publication CN114656556A

Columns and labels:
[1] = target: SARS-CoV2 S蛋白, 奥密克戎 (Omicron:BA.1), on pseudovirus (SARS-CoV2); test: cell-based or functional assay
[2] = target: SARS-CoV2 S蛋白, 拉姆达 (Lambda:C.37), on pseudovirus (SARS-CoV2); test: cell-based or functional assay

B1: 全人源单克隆抗体YK-CoV2-03 (fully human anti-SARS-CoV2 monoclonal antibody, whole IgG) (antibody, V domains shown)
VH: EVQLQESGGGLVQPGGSLRLSCAASGLTVSRNYMTWVRQAPGKGLEWVSLIYAGGSTYYADSVKGRFTISRDNSKNTLYLQMNSLGAEDTAVYYCARDLVYYGMDVWGQGTTVTVAS
VL: DIQMTQSPFSLSASVGDRVTITCRASQGISSYLAWYQQKPGKAPKLLIYAASTLQSGVPSRFSGSGSGTDFTLTISSLQPEDFATYYCQHLNSDRYTFGQGTKLEI
pseudovirus neutralisation IC50 (luciferase RLU, 293T-hACE2 cells) [1]: 0.32 µg/mL | pseudovirus neutralisation IC50 (luciferase RLU, 293T-hACE2 cells) [2]: 0.0209 µg/mL
